The results in this text go back to paper PMC3897609, “Heparanase Interacts with Resistin and Augments Its Activity” (PLoS ONE, 2014).

The test has as its target T1, cMyc-tagged 65-kDa latent heparanase (human, UniProt Q9Y251 36-543).
T1 construct: heparanase, human, 65-kDa latent (unprocessed) form; also called cMyc-latent heparanase; latent cMyc-heparanase; source: medium conditioned by heparanase infected CHO cells, purified (heparin column)
T1 sequence (looked up): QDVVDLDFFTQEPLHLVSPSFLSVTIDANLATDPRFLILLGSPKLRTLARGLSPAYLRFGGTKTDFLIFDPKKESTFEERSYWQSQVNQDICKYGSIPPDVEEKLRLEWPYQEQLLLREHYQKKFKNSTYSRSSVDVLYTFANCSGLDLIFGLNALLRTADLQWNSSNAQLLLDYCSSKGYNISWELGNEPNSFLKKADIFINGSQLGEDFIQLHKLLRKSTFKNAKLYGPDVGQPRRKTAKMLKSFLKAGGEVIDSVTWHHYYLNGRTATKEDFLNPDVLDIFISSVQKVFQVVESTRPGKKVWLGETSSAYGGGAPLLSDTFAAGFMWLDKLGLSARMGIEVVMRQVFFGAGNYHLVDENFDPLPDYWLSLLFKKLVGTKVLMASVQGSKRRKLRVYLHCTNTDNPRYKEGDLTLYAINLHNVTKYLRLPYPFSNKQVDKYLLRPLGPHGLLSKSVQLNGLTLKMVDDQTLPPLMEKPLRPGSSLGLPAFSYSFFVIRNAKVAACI
The test is described as follows: ELISA; competition: cMyc latent heparanase as coating layer; analyte resistin (200 ng/ml) preincubated 30 min at RT with the competitor (active heparanase, or leptin as control); bound resistin detected by anti resistin antibodies. As to conditions: both partners purified.

B1: human recombinant resistin expressed in HEK 293 (natural protein, UniProt Q9HD89 19-108, looked up)
chain: KTLCSMEEAINERIQEVAGSLIFRAISSIGLECQSVTSRGDLATCPRGFAVTGCTCGSACGSWDVRAETTCHCQCAGMDWTGARCCRVQP
notes: resistin, human, recombinant; Runs as a 12 kDa band under reducing conditions; also called RETN; source: HEK 293, pure preparation, gift from Serono
With B1, the binding result is on record as “binds”.
